Test results: article doi:10.64898/2025.12.19.695423

Target: Huntingtin Exon 1 with 44 glutamines (HttEx1Q44) amyloid fibrils
Test: MST

E3 ubiquitin ligase CHIP (from UniProt Q9UNE7 1-303) (enzyme)
K app with FP20: 170 nM
Kd: 460 nM
